According to US20210347873A1 (SHANGHAI PHARMAEXPLORER, published 2021):

Key:
[1] = molecular target: human BLyS (full length, arginine to histidine at position 132) on CHO-K1 cells (human) (UniProt Q9Y275); test: flow cytometry, CHO-K1 hBLyS cells, antibody 13.3 nM
[2] = molecular target: human BLyS (full length, arginine to histidine at position 132) on CHO-K1 cells (human) (UniProt Q9Y275); test: flow cytometry, CHO-K1 hBLyS cells, antibody 2.67 nM
[3] = molecular target: human BLyS (full length, arginine to histidine at position 132) on CHO-K1 cells (human) (UniProt Q9Y275); test: flow cytometry, CHO-K1 hBLyS cells, antibody 0.0213 nM
[4] = molecular target: cynomolgus BLyS (full length, arginine to histidine at position 132) on CHO-K1 cells (cynomolgus); test: flow cytometry, CHO-K1 cynoBLyS cells, antibody 0.107 nM
Sequence of cynomolgus BLyS (full length, arginine to histidine at position 132) on CHO-K1 cells (cynomolgus) (Q9Y275 other isoform, or with tags, fused parts or gaps limits assumed): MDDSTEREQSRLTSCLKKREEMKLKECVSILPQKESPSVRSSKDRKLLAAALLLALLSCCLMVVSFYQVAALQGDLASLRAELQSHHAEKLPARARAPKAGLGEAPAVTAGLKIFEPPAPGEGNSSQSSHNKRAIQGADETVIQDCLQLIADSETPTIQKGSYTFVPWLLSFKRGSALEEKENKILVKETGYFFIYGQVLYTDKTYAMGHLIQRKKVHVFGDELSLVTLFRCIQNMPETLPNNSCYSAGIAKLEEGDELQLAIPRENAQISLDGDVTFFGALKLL

[5] = molecular target: biotinylated hBLyS-ECD (human) (UniProt Q9Y275); test: ELISA, biotinylated hBLyS-ECD captured on streptavidin; antibody 0.107 nM
[6] = molecular target: biotinylated hBLyS-ECD (human) (UniProt Q9Y275); test: ELISA, biotinylated hBLyS-ECD captured on streptavidin; antibody 0.0213 nM
biotinylated hBLyS-ECD [7] = molecular target: T1, biotinylated hBLyS-ECD (human, UniProt Q9Y275 134-285, biotinylated with Biotin-X-X-NHS (molar ratio 7:1), sites not stated); test: ELISA: biotinylated hBLyS-ECD captured on streptavidin, antibody titrated, HRP secondary antibody
T1 construct: The hBLyS-ECD of Embodiment 1 after biotinylation (Embodiment 2); also called biotinylated immunogen; BLyS protein; not shown: His tag of the pCPC vector
Experimental: Streptavidin was first diluted to a final concentration of 1.0 μg/mL with PBS, and then 50 μL of diluted streptavidin per well was aliquoted into 96-well ELISA plate, which was subsequently sealed with plastic film and incubated at 4° C. overnight. On the next day the plate was washed four times with the plate washing buffer [PBS buffer containing 0.05% (v/v) Tween20] and added with the blocking solution [PBS buffer containing 0.05% (v/v) Tween20 and 1% (w/w) BSA] and blocked for 2 hours at 37° C. The blocking solution was removed, the biotinylated hBLyS-ECD prepared in Embodiment 2 was diluted with PBS to a final concentration of 50 ng/mL and then aliquoted into the 96-well ELISA plate at 50 μL per well and incubated for 1 hour at 37° C. After rinsing the plate four times with the plate washing buffer [PBS buffer containing 0.05% (v/v) Tween20], 100 μl of the purified lead antibody harvested in Embodiment 1 and 2 was pipetted into each well. After incubation for 1 hour at 37° C., the plate was rinsed four times with the plate washing buffer [PBS buffer containing 0.05% (v/v) Tween20]. HRP-labeled (horseradish peroxidase) secondary antibody (purchased from Sigma) was added in and incubated at 37° C. for 1 hour. […] A₄₅₀ₙₘ values were read via an ELISA plate reader (SpectraMax M5e purchased from Molecular Devices) and the results were shown in FIGS. 5A-5B and Table 10.

biotinylated hBLyS-ECD [8] = molecular target: T2, biotinylated hBLyS-ECD (human, UniProt Q9Y275 134-285, biotinylated with Biotin-X-X-NHS (molar ratio 7:1); sites not stated); test: ELISA on captured biotinylated hBLyS-ECD; antibody 13.3 nM
T2 construct: also called biotinylated immunogen; biotinylated hBLvS-ECD

biotinylated hBLyS-ECD [9] = molecular target: T2, biotinylated hBLyS-ECD; test: ELISA on captured biotinylated hBLyS-ECD; antibody 66.7 nM
biotinylated hBLyS-ECD [10] = molecular target: T2, biotinylated hBLyS-ECD; test: as above; remark: listed apart in the source
biotinylated hBLyS-ECD [11] = molecular target: T2, biotinylated hBLyS-ECD; test: ELISA on captured biotinylated hBLyS-ECD; antibody 0.107 nM
biotinylated hBLyS-ECD [12] = molecular target: T2, biotinylated hBLyS-ECD; test: as above; remark: listed apart in the source
biotinylated hBLyS-ECD [13] = molecular target: T2, biotinylated hBLyS-ECD; test: ELISA on captured biotinylated hBLyS-ECD; antibody 0.534 nM
biotinylated hBLyS-ECD [14] = molecular target: T2, biotinylated hBLyS-ECD; test: ELISA on captured biotinylated hBLyS-ECD; antibody 0.00427 nM
biotinylated hBLyS-ECD [15] = molecular target: T2, biotinylated hBLyS-ECD; test: ELISA on captured biotinylated hBLyS-ECD; antibody 0 nM (background)
[16] = molecular target: T3, extracellular domain of human BLyS protein (hBLyS-ECD), His-tagged, Ala134-Leu285 (human, UniProt Q9Y275 134-285); test: SPR (Biacore), antibody captured by anti-human Fc, hBLyS-ECD as analyte
T3 construct: Expressed in HEK293 cells and purified on a Ni column; also called immunogen
Experimental: Affinity constants were determined using a Biacore X100 instrument (purchased from GE Healthcare). Detailed operations and methods referred to the instrument manuals and detailed methods provided by manufacturers, specifically: determining affinity constant using a CM5 chip (Sensor Chip CM5, purchased from GE Healthcare). […] Then 1 M ethanolamine was injected in chip to block the remaining activation sites. After the antibody to be tested (i.e., the human BLyS antibody prepared by Embodiment 2) was captured by chip, 7 different gradient of immunogen dilutions (i.e., hBLyS-ECD) prepared by Embodiment 1 were injected and the binding and dissociation of antigen with antibody was detected by a Biacore instrument. The dissociation constant and binding constant were then fitted by Biacore X100 Evaluation Software 2.0, while the affinity constant was the ratio of dissociation constant to binding constant.
The binding and dissociation between antibody and antigen was detected by Biacore.

Sequence of human BLyS (full length, arginine to histidine at position 132) on CHO-K1 cells (human) (Q9Y275 whole entry R130H): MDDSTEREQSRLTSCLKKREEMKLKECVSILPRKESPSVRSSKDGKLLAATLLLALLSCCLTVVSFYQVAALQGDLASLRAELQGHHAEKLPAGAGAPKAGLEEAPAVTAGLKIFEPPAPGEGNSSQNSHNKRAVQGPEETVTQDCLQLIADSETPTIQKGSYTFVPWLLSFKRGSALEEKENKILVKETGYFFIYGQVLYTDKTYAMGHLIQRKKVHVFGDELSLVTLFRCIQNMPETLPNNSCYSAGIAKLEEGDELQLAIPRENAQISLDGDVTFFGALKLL

| MFI [1] [MFI] | MFI [2] [MFI] | MFI [3] [MFI] | MFI [4] [MFI] | OD450 nm [5] | OD450 nm [6] | EC50 (read off the curve) (biotinylated hBLyS-ECD [7]) [nM] | OD450 nm (biotinylated hBLyS-ECD [8]) [OD450 nm] | OD450 nm (biotinylated hBLyS-ECD [9]) [OD450 nm] | OD450 nm (biotinylated hBLyS-ECD [10]) [OD450 nm] | OD450 nm (biotinylated hBLyS-ECD [11]) [OD450 nm] | OD450 nm (biotinylated hBLyS-ECD [12]) [OD450 nm] | OD450 nm (biotinylated hBLyS-ECD [13]) [OD450 nm] | OD450 nm (biotinylated hBLyS-ECD [14]) [OD450 nm] | OD450 nm (biotinylated hBLyS-ECD [15]) [OD450 nm] | Kd [16] [nM] | koff [16] [s⁻¹] | kon [16] [M⁻¹ s⁻¹] | Molecule |
| --- | --- | --- | --- | --- | --- | --- | --- | --- | --- | --- | --- | --- | --- | --- | --- | --- | --- | --- |
| 35.1 | 33.1 | 33.6 | 22.8 | 0.0905 | 0.111 | – | – | – | – | – | – | – | – | – | – | – | – | hIgG Control (antibody) |
| 31.7 | 31 | 32.7 | 19.7 | 0.0562 | 0.0595 | – | – | – | – | – | – | – | – | – | – | – | – | mIgG Control (antibody) |
| – | – | – | – | – | – | ~0.2 | – | – | – | – | – | – | – | – | – | – | – | L9G7 (antibody, human IgG1, V domains shown) VH: QIQLVQSGAEVKKPGASVKVSCKASGYTFTSYGISWVRQAPGQGLEWMGWISAYNGNTNYAQKLQGRVTMTTDTSTSTAYMELRSLRSDDTAVYYCARTYYDILTGYYYYGMDVWGQGTTVTVSS VL: EIVLTQSPGTLSLSPGERATLSCRTSQSVDTYLAWYQQKPGQAPRLLIYDASNRATGIPARFSGSGSGTDFTLTISSLEPEDFAVYYCQQRSNWPLTFGGGTKVEIK |
| – | – | – | – | – | – | – | 3.32 | 3.31 | 2.32 | 1.7 | 1.28 | 1.97 | 0.176 | 0.0918 | 2.94 | 0.000714 | 243000 | c8E7D9C7F5 (antibody, V domains shown, also called chimeric antibody c8E7D9C7F5) VH: QVQLQQSGVELARPGASVKLSCKASGYTFTSYGISWVKQRTGQALEWIGEIYPRSGNTYYNEKFKGKATLTADKSSSTAYMELRSLTSEDSAVYFCARSGPITTLVATDYGMDYWGQGTSVTVSS VL: DIVLTQSPASLAVSLGQRATISCRASKSVSTSSYSYMHWYQQKPGQPPKLLIKFASNLESGVPARFSGSGSGTDFTLNIHPVEEEDAATYYCQHSREFPYTFGGGTKLEIK |
| – | – | – | – | – | – | – | 3.33 | 3.3 | 2.41 | 2.35 | 1.19 | 1.91 | 0.25 | 0.122 | 1.49 | 0.000179 | 121000 | c97A3C2H4 (antibody, V domains shown, also called chimeric antibody c97A3C2H4) VH: EVKLVESGGGLVQPGGSLKLSCAASGFTFSTYTMSWVRQTPEKRLEWVAYISYGGGSTSYPDTVKGRFTISRDNAKNTLYLQMSSLKSEDTAIYYCTRHVTVVENSMDYWGQGTSVTVSS VL: DILLTQSPDILSVSPGERVSFSCRASQSIGTSIHWYQQRTNGSPRLLIKYVSESFSGTPSRFSGSGSGTAFTLTINSVESEDIADYYCQQTHSWPWTFGGGTKLEIK |
| – | – | – | – | – | – | ~0.1 | – | – | – | – | – | – | – | – | – | – | – | L1D12 (antibody, human IgG1, V domains shown, also called LID12) VH: QVQLVQSGGGLVQPGGSLRLSCAASGFTVSSNYMSWVRQAPGKGLEWVSVIYSGGSTYYADSVKGRFTISRDNSKNTLYLQMNSLRAEDTAVYYCARGFHDILTGYGMDVWGQGTTVTVSS VL: SSELTQDPAVSVALGQTVRITCQGDSLRNYYAGWYQQKPGQAPVLVIYGKNNRPSGIPDRFSGSSSGNTASLTITGTQAEDEADYYCSSRDNSGTHLVEFGGGTKLTVL |
